In publication PMC3716775, “Interaction between Trehalose and MTHase from Sulfolobus solfataricus Studied by Theoretical Computation and Site-Directed Mutagenesis” (PLoS ONE, 2013):
Positions count from the first letter of the chain named. Numbers in names are those of the source.

B1: MTHase (maltooligosyltrehalose trehalohydrolase) from S. solfataricus ATCC 35092 (Saccharolobus solfataricus P2) (protein)
chain: MTFGYKLDEDGVTFNLWAPYQRKVKLKILNRGIYEMERDDKGYFTITLDNVRVGDRYKYILDDNSEVPDPASRYQPEGVHGYSEIISPDFEWDDENSVKVKREDLVIYELHIGTFTSEGTFEGVIKKLNYLKELGVTAIEIMPIAQFPGKKDWGYDGVYLYAVQNSYGGPSGFRKLVNEAHKLGLAVILDVVYNHVGPEGNYMVKLGPYFSEKYKTPWGLTFNFDDAGSDEVRKFILENVEYWINEFHVDGFRLDAVHAIIDNSPKHILEDIADVVHKYDKIVIAESDLNDPRVVNPKEKCGYNIDAQWVDDFHHAIHAFLTGERQGYYSDFGSIGDIVKSYKDVFIYDGKYSNFRRKTHGKSVGDLDGCKFVVYIQNHDQVGNRGGGERLIKLVDKESYKIAAALYILSPYIPMIFMGEEYGEENPFYYFSDFSDPKLIQGVREGRRRENGQETDPQSDCTFNDSKLSWKINDDILSFYKSLIKIRKEYGLACNRKLSVENGNYWLTVKGNGCLAVYVFSKSVIEMKYSGTLVLSSNSSFPSQITESKYELDKGFALYKL
notes: expressed from pET-15b-ΔH-treZ in E. coli BL21-CodonPlus (DE3)-RIL; heat treatment 80 °C, Q-Sepharose; docking model was the KM1 enzyme (PDB 1EH9), not the assayed protein
B2: MTHase (maltooligosyltrehalose trehalohydrolase) from S. solfataricus ATCC 35092 (Saccharolobus solfataricus P2; R447A) (protein)
chain: B1 chain with R447A
notes: as for B1
B3: MTHase (maltooligosyltrehalose trehalohydrolase) from S. solfataricus ATCC 35092 (Saccharolobus solfataricus P2; D156A) (protein)
chain: B1 chain with D156A
notes: as for B1
B4: MTHase (maltooligosyltrehalose trehalohydrolase) from S. solfataricus ATCC 35092 (Saccharolobus solfataricus P2; H195A) (protein)
chain: B1 chain with H195A
notes: as for B1
B5: MTHase (maltooligosyltrehalose trehalohydrolase) from S. solfataricus ATCC 35092 (Saccharolobus solfataricus P2; Y155A) (protein)
chain: B1 chain with Y155A
notes: as for B1
B6: MTHase (maltooligosyltrehalose trehalohydrolase) from S. solfataricus ATCC 35092 (Saccharolobus solfataricus P2; E450A) (protein)
chain: B1 chain with E450A
notes: as for B1
B7: MTHase (maltooligosyltrehalose trehalohydrolase) from S. solfataricus ATCC 35092 (Saccharolobus solfataricus P2; Y155F) (protein)
chain: B1 chain with Y155F
notes: as for B1

substrate: OC[C@H]1O[C@H](O[C@H]2O[C@H](CO)[C@@H](O[C@H]3O[C@H](CO)[C@@H](O[C@H]4O[C@H](CO)[C@@H](O[C@H]5O[C@H](CO)[C@@H](O)[C@H](O)[C@H]5O)[C@H](O)[C@H]4O)[C@H](O)[C@H]3O)[C@H](O)[C@H]2O)[C@H](O)[C@@H](O)[C@@H]1O; assay: initial rates of G3T hydrolysis, Michaelis-Menten fit; type: biochemical, Saccharolobus solfataricus; settings: 50 mM citrate-phosphate pH 5, 60 °C
Text: initial rates of […] hydrolysis, Michaelis-Menten fit on […] (maltooligosyltrehalose trehalohydrolase) from S. solfataricus ATCC 35092

Row | Protein | Km [mM] | kcat [s⁻¹] | kcat/Km [M⁻¹ s⁻¹]
1 | B1 | 5.22 ± 0.59 | 947 ± 40 | 182000 ± 14000
2 | B2 | 10.7 ± 1.3 | 303 ± 16 | 28200 ± 2000
3 | B3 | 12.9 ± 2.3 | 608 ± 62 | 47300 ± 3700
4 | B4 | 4.18 ± 0.31 | 2.15 ± 0.05 | 510 ± 30
5 | B5 | 39.2 ± 2.8 | 44.8 ± 1.7 | 1140 ± 40
6 | B6 | 7.48 ± 0.70 | 1070 ± 50 | 144000 ± 8000
7 | B7 | 5.02 ± 0.34 | 27.8 ± 0.7 | 5540 ± 250
